Assay [1] has as its target T1, Human cathepsin-L (Homo sapiens, UniProt P07711).
T1 construct: purchased Sigma (Munich, Germany)
The assay is described as follows: In vitro proteolysis by cathepsin-L. Format: biochemical. The note with it: 37° C., 24 h. The method, then:
(§1) Glycopeptides were incubated with 10 μg of human 20S immunoproteasomes (Immatics) for […], at 37° C., in 10 μl of digestion buffer (20 mM HEPES/KOH, pH 7.6 containing 2 mM Mg(CH3COO)2 and 1 mM DTT) as described (13). Digestion was stopped after 24 h by freezing the sample at −80° C. Human cathepsin-L was purchased from Sigma (Munich, Germany) and solubilized in 0.1 M sodium acetate, pH 5.5, containing 1 mM EDTA and 1 mM dithiothreitol (12). About 5 mU of enzyme were added to sialoglycopeptide substrates SGGP1 to SGGP5 (75-100 μM) in a total volume of 20 μl. The reaction mixtures were incubated at 37° C. for 24 h and 1 μl of trifluoroacetic acid was added to stop the reaction. The reaction products were cleaned by solid-phase extraction on ZipTipC18 pipette tips and 0.5 μl aliquots were applied onto the MALDI target for mass spectrometric analysis. Kinetic studies with the non-glycosylated 100-mer P1 were performed under the same conditions and the products were chromatographed on HPLC for purification and quantification.

In assay [2] the target is T2, human 20S immunoproteasomes (Homo sapiens, UniProt P28062+P28065+P40306).
T2 construct: purchased Immatics Biotechnologies (Tübingen, Germany)
In words: In vitro proteolysis of MUC1 repeat peptides and glycopeptides by immunoproteasomes. It counts as biochemical. The method, then:
A 1 mg/ml solution of immunoproteasomes prepared according to a published protocol (20) was purchased from Immatics Biotechnologies (Tübingen, Germany) and stored frozen at −80° C.
as §1

The test system of assay [3] is T2 target cells. The assay is described as follows: CTL activity against peptide-loaded T2 target cells (CFSE/7-AAD). Format: cell-based, human. The note with it: T2 cells loaded with 10 μg/ml peptide, 6-hour incubation. The method, then:
(§2) Peripheral blood mononuclear cells (PBMCs) were isolated from buffy coats of HLA-A*0201 healthy donors by Ficoll-Hypaque (MP Biomedicals, Solon, Ohio) density gradient centrifugation.
(§3) Dendritic cells (DCs) were generated by culturing adherent monocytes for 6 days in AIM-V medium (Invitrogen, Carlsbad, Calif.) supplemented with 500 U/mL granulocyte macrophage colonystimulating factor (GM-CSF, R&D, Minneapolis, Minn.) and 1000 U/mL interleukin (IL)-4 (R&D), and then matured for 48 hours with a cocktail of cytokines consisting of 10 ng/mL of each, tumor necrosis factor (TNF)-alpha, IL-6, IL-1beta (R&D), and 1 μg/mL prostaglandine E2 (Sigma, St. Louis, Mo.). […] DCs pulsed with single peptides were combined, washed, resuspended and used as stimulator cells. They were added to the autologous lymphocyte fraction in 24-well Linbro plates (ICN, Aurora, Ohio) at a ratio of 1:10 at culture initiation and fed in RPMI 1640 media supplemented with 10% human AB serum, 10 ng/ml rhIL-6 (R&D) and 5 ng/ml rhIL-12 (PreproTech, Rocky Hill, N.J.). On day 10 and thereafter every 9 days, T cells were restimulated at a ratio of 1 DC to 20 T cells, in RPMI 1640 media supplemented with 10% human AB serum, rhIL-2 and rhIL-7 (20 U/ml each, R&D).
(§4) Antigen Specificity was Assessed after 4 Stimulations. Three Days Past Each stimulation cell supernatant was collected and IFNy secretion was quantified using OptElA human IFNy ELISA kit (BD). CD8+ T-cells were enriched using magnetic microbeads (human CD8+ T Cell Isolation Kit II from Miltenyi Biotech, Auburn, Calif.) according to the manufacture's instructions and analyzed by flow cytometry for intracellular IFN-gamma and TNF-alpha production after a final 5-hour restimulation with peptide-loaded DCs in the presence of monensin (Golgi Stop, BD; 21). CTL activity was determined 3 days after the last restimulation. […] They were washed, labeled with 5- (and 6)-carboxyfluorescein diacetate succinimidyl ester (CFSE) according to the manufacture's instructions (Immunochemistry, Bloomington, Minn.) and added to a 96-well plate in duplicates at 5000 cells/well. CFSE labeled T2 cells not loaded with peptides were used as controls. CD8+ T effector cells were added at various E:T ratios for a 6-hour incubation at 37° C. Target cell death was detected by adding 7-amino-actinomycin (7-AAD, Immunochemistry) to each well 10 min before data analysis by flow cytometry and analysis was performed according to the manufacture's instructions (22).

The test system of assay [4] is CD8+ T-cells. In words: IFN-gamma and TNF-alpha production by peptide-primed T-cells. Format: cell-based, human. The note with it: after last cycle of restimulation, 4 weeks of in vitro culture. The method, then:
as §2, §3, §4

The target in assay [5] is T3, HLA-A0201 (Homo sapiens, UniProt P04439, D140Y/D185E/D98H/E176V/E277Q/G131W/G231S/I119V/I121R/I166T/I218V/L300P/L318F/N151K/N90K/P208A/P217A/Q86G/Q94H/R138H/R169H/T345S).
T3 construct: endogenous in cells; host or cells: T2 cell line (TAP-deficient)
In words: MHC stabilization assay on T2 cells. Format: binding. The note with it: T2 cells, 100 μg peptide, 16 h, W6/32 antibody, FACS. The method, then:
MHC stabilization assay is based on the increased affinity of HLA-A, -B, -C specific monoclonal W6/32 antibody for the stabilized conformation of MHC molecules after binding of a peptide ligand. The T2 cells express empty MHC molecules with short half-life.
For MHC stabilization assay T2 cells were grown in IMDM medium supplemented with 2% FCS. T2 cells were washed in PBS from the residual serum, and resuspended at 1×10^6/ml of IMDM supplemented with 0.1% FCS and 25 mM HEPES. Half of a million of cells were incubated in 48-well cell culture plate with 1 μg of […]2-microglobulin and 100 μg of peptide for 16 h at 27° C. and 8% CO2. Cells were washed with 5 ml PBS, centrifuged at 180×g for 5 min and the pellet was resuspended in 10 μl PBS containing 1 μg of W6/32 antibody and incubated at 4° C. for 30 minutes.
Subsequently, cells were washed in PBS with 1% BSA (3×5 ml) and the pellet was resuspended in 50 μl of secondary anti-mouse Alexa 488 antibody (1:1000 in PBS with 0.1% BSA), incubated for 30 minutes in the dark, washed with PBS (3×5 ml) and resuspended in 500 μl of PBS. Binding of the W6/32 antibody to MHC class I molecules was analyzed by FACS on the Beckman Coulter ADCXL4C flow cytometer. As a positive control hepatitis B virus core antigen HBVc18-27 P6Y˜C ([…]) was used. As a negative control T2 cells were used, to which no peptide was added.
Relative binding capacities of the peptides were expressed as the percent of the positive control signal (100%), normalized to the negative control (0%). A mean fluorescence that was at least 10% higher than the negative control level was considered positive binding.

The target in assay [6] is T4, HLA-A*0201 allele of the MHC class I molecule, empty, on the surface of TAP-deficient T2 cells (human).
T4 construct: also called HLA-A2
The assay is described as follows: MHC stabilization assay on T2 cells, W6/32 staining, flow cytometry.

No end group written: not given here. *: point of attachment. αGalNAc = CC(=O)N[C@@H]1[C@@H](O)[C@@H](O)[C@@H](CO)O[C@@H]1*

T1 sequence (P07711 114-333): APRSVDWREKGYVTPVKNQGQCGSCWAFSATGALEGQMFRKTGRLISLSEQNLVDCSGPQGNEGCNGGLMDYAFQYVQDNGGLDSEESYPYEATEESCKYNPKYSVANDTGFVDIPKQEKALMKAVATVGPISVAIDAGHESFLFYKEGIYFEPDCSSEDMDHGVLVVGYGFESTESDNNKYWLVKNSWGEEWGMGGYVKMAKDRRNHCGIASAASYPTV

With (CVISAPDTRPAPGSTAPPAH)x5 [Peptide P1], the “digestion of the substrate by cathepsin L” value in assay [1] is reported as “quantitative digestion of the substrate within 24 h”. Also, the “AVERAGE FRAGMENT LENGTH” value in assay [2] (digest by immunoproteasomes) is listed as 25.2. Further, the “NUMBER OF FRAGMENTS” value in assay [2] (digest by immunoproteasomes, HPLC and MALDI-MS) came out at 105. Besides, the “% of glycopeptide” value in assay [2] (glycosylated 8- to 11-meric fragments relative to total 8- to 11-mers) came to 0%. Moreover, the “8-11 mers (%)” value in assay [2] (relative to total amount of digestion products of immunoproteasomal cleavage) was found to be 13%.
In the case of “SAPDT(-GalNAc)RPAPG (SAPDTRPAPG) [Peptide F2]”, the figures for the “lysis of peptide-pulsed T2 target cells by induced CD8+ T cells” value (from here on “lysis of peptide-pulsed T2 target cells”) in assay [3] and in assay [3] (listed as SAP10-T5*) were “efficiently lysed” and “efficiently kill”, respectively. Moreover, in assay [4], the “CD8+ cells producing IFN-γ” value is given as 22%. Further, the “TNF-α production by CD8+ cells” value in assay [4] is recorded as “not TNF-α”. For the same molecule, the “ligation strength (binding to HLA-A0201)” value was “strong binding” in assay [5]; “binding comparably strong in the glycosylated and non-glycosylated form” in assay [5] (listed as SAP10-T5*); “slightly weaker binding” in assay [5] (listed as SAP10-T5-GalNAc).
“SAPDTRPAPG (fragment of MUC1; listed as Homo sapiens) [Peptide F1]”: the “lysis of peptide-pulsed T2 target cells” value in assay [3] is “efficiently lysed”; in assay [3] (listed as SAP10), “efficiently kill”. Besides, in assay [4], the “CD8+ cells producing IFN-γ” value was 28.8%. Also, in assay [4], the “TNF-α production by CD8+ cells” value is recorded as “not TNF-α”. For the same molecule, in assay [5], the “ligation strength (binding to HLA-A0201)” value was “strongest binders”.
In the case of SAPES(GalNAc)RPAPG [Peptide F3], the “lysis of peptide-pulsed T2 target cells” value in assay [3] is on record as “only minimal increased cell lysis above the background lysis”. Also, in assay [4], the “CD8+ cells producing IFN-γ” value is 18.1% and the “TNF-α production by CD8+ cells” value is “not TNF-α”.

B1: SAP10, non-glycosylated MUC1 tandem repeat peptide SAPDTRPAPG (peptide)
peptide: SAPDTRPAPG
notes: also called F1
B1: the binding result in assay [6] is listed as “binds”.

B2: SAPDT(-GalNAc)RPAPG (SAP10-T5*) (peptide)
peptide: SAPDT(αGalNAc)RPAPG
notes: Glycopeptide; also called SAP10-T5-GalNAc; F2
In the case of B2, the binding result in assay [6] is “binds”.

The values are drawn from patent US20090004212A1, “Tumour vaccines for MUC1-positive carcinomas” (priority 1997, published 2009).
